Assay results reported in article PMC10846947 (Journal of Alzheimer's disease : JAD, 2022).

Key:
[1] = mouse, in vivo
[2] = mouse, in vivo; remark: listed apart in the source
[3] = mouse, in vivo; remark: listed apart in the source
[4] = mouse, in vivo; remark: listed apart in the source
[5] = mouse, in vivo, iv

| Substance | increase in plasma AUC at 52 weeks [1] | plasma AUC of 125I-Aβ40 relative to 125I-Aβ42 [1] | PS product in the whole brain, WT versus APP/PS1 mice [2] | PS product in the whole brain, lower in APP/PS1 mice compared to WT mice [2] | decrease in PS values at 52 weeks [2] | decrease in PS values in various brain regions at 52 weeks [3] | decrease in PS values at various brain regions at 24 weeks [2] | increase in PS values in various brain regions at 52 weeks [3] | decrease in PS products at various brain regions at 24 weeks compared to 8 weeks [4] | decrease in brain influx clearance (Ki) at 104 weeks compared to 12 weeks [5] |
| --- | --- | --- | --- | --- | --- | --- | --- | --- | --- | --- |
| ^125I-Aβ40: custom synthesized amyloid-β 40 peptide, soluble form, radiolabeled with 125I by the chloramine-T procedure | ~ 7 fold | ~ 12 fold | no differences | ~ 1.5 fold | ~ 1.5 fold | ~ 4 fold | – | – | – | – |
| ^125I-Aβ42: custom synthesized amyloid-β 42 peptide, soluble form, radiolabeled with 125I by the chloramine-T procedure | – | – | no significant differences | – | – | – | ~ 1.5 fold | ~ 1.5 fold | – | – |
| ^125I-insulin: human insulin (Sigma-Aldrich) radiolabeled with 125I by the chloramine-T procedure | – | – | – | – | – | – | – | – | ~ 5 fold | ~ 2 fold |
